Laboratory results from patent US9791436 (UNIVERSITY OF QUEENSLAND, dated 2017).

Target: PSA (prostate specific antigen) (UniProt P07288 25-261)
Experiment: cell-based or functional assay

PSA (prostate specific antigen), sequence (P07288 25-261 limits assumed): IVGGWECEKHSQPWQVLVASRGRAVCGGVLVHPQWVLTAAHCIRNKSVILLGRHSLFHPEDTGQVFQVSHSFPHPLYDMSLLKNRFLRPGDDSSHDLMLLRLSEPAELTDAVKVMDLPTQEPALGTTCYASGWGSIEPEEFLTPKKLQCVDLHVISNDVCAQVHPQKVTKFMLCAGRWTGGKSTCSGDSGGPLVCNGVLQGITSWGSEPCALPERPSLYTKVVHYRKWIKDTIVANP

B1: H6-68-AP-PSA-VHH (other)
chain: SSGSKALLKGVRDFNPISACVCLLENSSDGHSERLFGIGFGPYIIANQHLFRRNNGELTIKTMHGEFKVKNSTQLQMKPVEGRDIIVIKMAKDFPPFPQKLKFRQPTIKDRVCMVSTNFQQKSVSSLVSESSHIVHKEDTSFWQHWITTKDGQCGSPLVSIIDGNILGIHSLTHTTNGSNYFVEFPEKFVATYLDAADGWCKNWKFNADKISWGSFILWEDAPGGEHSSKLQSGAGREYVRFAPGGSGGSGGSGGSGGSGGDVQLQESGGGSVQAGGSLRLSCVASGWIYIPPCMAWFRQAPGKERERVATINPSGRTYYADSTKGRFRISQDNVKRTLYLYMNSLKPEDTATYYCAADDGTCPRMEFDDWGQGTQVTVSSGGSHHHHHH
- sensitivity of the PSA biosensor assay: 2 fold better than the N-terminal VHH configuration
